± gives the standard deviation of the averaged measurements.
Assay: total protein half-life in vivo (active degradation + dilution); higher = more stable protein
[1] = E. coli NCM3722 delta-clpP delta-lon delta-hslV, growth: N-lim chemostat, doubling time 6 h
[2] = E. coli NCM3722 delta-clpP, growth: N-lim chemostat, doubling time 6 h
[3] = E. coli NCM3722 delta-hslV, growth: N-lim chemostat, doubling time 6 h
[4] = E. coli NCM3722 delta-lon, growth: N-lim chemostat, doubling time 6 h
[5] = E. coli NCM3722 delta-smpB, growth: N-lim chemostat, doubling time 6 h
[6] = wild type E. coli NCM3722, growth: C-lim chemostat, doubling time 3 h
[7] = wild type E. coli NCM3722, growth: C-lim chemostat, doubling time 6 h
[8] = wild type E. coli NCM3722, growth: C-lim chemostat, doubling time 12 h
[9] = wild type E. coli NCM3722, growth: N-lim chemostat, doubling time 6 h
[10] = wild type E. coli NCM3722, growth: N-lim chemostat, doubling time 12 h
[11] = wild type E. coli NCM3722, growth: P-lim chemostat, doubling time 6 h
[12] = wild type E. coli NCM3722, growth: P-lim chemostat, doubling time 12 h

## MFLVDSHCHLDGLDYESLHKDVDDVLAKAAARDVKFCLAVATTLPGYLHMRDLVGERDNVVFSCGVHPLNQNDPYDVEDLRRLAAEEGVVALGETGLDYYYTPETKVRQQESFIHHIQIGRELNKPVIVHTRDARADTLAILREEKVTDCGGVLHCFTEDRETAGKLLDLGFYISFSGIVTFRNAEQLRDAARYVPLDRLLVETDSPYLAPVPHRGKENQPAMVRDVAEYMAVLKGVAVEELAQVTTDNFARLFHIDASRLQSIR [P0AFQ7]
[1]
  total protein half-life in vivo: 4.81 ± 0.12 h
[2]
  total protein half-life in vivo: 3.33 ± 0.04 h
[3]
  total protein half-life in vivo: 3.06 ± 0.22 h
[4]
  total protein half-life in vivo: 3.76 ± 0.27 h
[5]
  total protein half-life in vivo: 2.97 ± 0.21 h
[6]
  total protein half-life in vivo: 2.46 ± 0.053 h
[7]
  total protein half-life in vivo: 4.73 ± 0.61 h
[8]
  total protein half-life in vivo: 9.89 ± 2.7 h
[9]
  total protein half-life in vivo: 3.63 ± 0.31 h
[10]
  total protein half-life in vivo: 5.34 ± 1.1 h
[11]
  total protein half-life in vivo: 4.39 ± 0.14 h
[12]
  total protein half-life in vivo: 7.55 ± 0.79 h

## MFNGRPFPVDAFPKIIRNAIYEVEQHTQAPQGLIAASALGVISLACQNRIDVCRLNNLRGPVSLFLMTLAESGERKSTVDKLLMKPLYQLEEDLFEKYTHDLTAWRNDEAIFNIEKKALMSKLKSDIRRNKDHLATNERLKELLTTNPKAPVRFKFLFNDATPAAIKAHLCGHWRSVGIMSDEAGIIFNGYTLNELPFINKMWDGSIFTVERKNEPEKLIRDARITLSLMVQPNVFKGYIDRKGDMAKGIGFFARCLMCQPASTQGNRKISNPIFSNEHLPVFHQRLMEIVNESIIKINENNRICLRFSAEAERHWIEFYNQVESEMRMIGLLYDFKDYASKMAENMARLAALLHYFSGDGGDISVTAVKAAVEIVAWYIEEYIRLFSKKEEFSLDVSEADELYCWIKDYCTQKFSSCIKKNIILQFGPNKFRNRDKANELIRILISQNKIFISSWGKTKIINITHCVF
[1]
  total protein half-life in vivo: 4.5 h

## MFNNILVVCVGNICRSPTAERLLQRYHPELKVESAGLGALVGKGADPTAISVAAEHQLSLEGHCARQISRRLCRNYDLILTMEKRHIERLCEMAPEMRGKVMLFGHWDNECEIPDPYRKSRETFAAVYTLLERSARQWAQALNAEQV [P0AAB2]
[1]
  total protein half-life in vivo: 5.46 h
[4]
  total protein half-life in vivo: 1.13 h

## MFNRIRISTTLFLILILCGILQIGSNGMSFWAFRDDLQRLNQVEQSNQQRAALAQTRAVMLQASTALNKAGTLTALSYPADDIKTLMTTARASLTQSTTLFKSFMAMTAGNEHVRGLQKETEKSFARWHNDLEHQATWLESNQLSDFLTAPVQGSQNAFDVNFEAWQLEINHVLEAASAQSQRNYQISALVFISMIIVAAIYISSALWWTRKMIVQPLAIIGSHFDSIAAGNLARPIAVYGRNEITAIFASLKTMQQALRGTVSDVRKGSQEMHIGIAEIVAGNNDLSSRTEQQAASLAQTAASMEQLTATVGQNADNARQASELAKNAATTAQAGGVQVSTMTHTMQEIATSSQKIGDIISVIDGIAFQTNILALNAAVEAARAGEQGRGFAVVAGEVRNLASRSAQAAKEIKGLIEESVNRVQQGSKLVNNAAATMIDIVSSVTRVNDIMGEIASASEEQQRGIEQVAQAVSQMDQVTQQNASLVEEAAVATEQLANQADHLSSRVAVFTLEEHEVARHESVQLQIAPVVS
[2]
  total protein half-life in vivo: 6.16 h
[5]
  total protein half-life in vivo: > 8 h
[6]
  total protein half-life in vivo: 1.87 ± 0.38 h
[7]
  total protein half-life in vivo: 3.01 ± 0.33 h
[8]
  total protein half-life in vivo: 4.13 ± 0.71 h

## MFNRPNRNDVDDGVQDIQNDVNQLADSLESVLKSWGSDAKGEAEAARSKAQALLKETRARMHGRTRVQQAARDAVGCADSFVRERPWCSVGTAAAVGIFIGALLSMRKS [P0ADQ7]
[1]
  total protein half-life in vivo: 5.92 ± 0.068 h
[3]
  total protein half-life in vivo: 7.51 ± 0.67 h
[5]
  total protein half-life in vivo: 4.83 ± 0.087 h
[6]
  total protein half-life in vivo: 2.37 ± 0.46 h
[7]
  total protein half-life in vivo: 5.79 ± 0.34 h
[8]
  total protein half-life in vivo: 9.97 ± 1.7 h
[9]
  total protein half-life in vivo: 5.55 ± 0.094 h
[10]
  total protein half-life in vivo: 11.3 ± 1.4 h
[11]
  total protein half-life in vivo: 5.17 ± 0.21 h
[12]
  total protein half-life in vivo: 10.8 ± 0.18 h

## MFPFRRNVLAFAALLALSSPVLAGKLAIVIDDFGYRPHNENQVLAMPSAISVAVLPDSPHAREMATKAHNSGHEVLIHLPMAPLSKQPLEKNTLRPEMSSDEIERIIRSAVNNVPYAVGINNHMGSKMTSNLFGMQKVMQALERYNLYFLDSVTIGNTQAMRAAQGTGVKVIKRKVFLDDSQNEADIRVQFNRAIDLARRNGSTIAIGHPHPATVRVLQQMVYNLPPDITLVKASSLLNEPQVDTSTPPKNAVPDAPRNPFRGVKLCKPKKPIEPVYANRFFEVLSESISQSTLIVYFQHQWQGWGKQPEAAKFNASAN
[1]
  total protein half-life in vivo: 5.42 ± 0.15 h
[2]
  total protein half-life in vivo: 6.23 h
[3]
  total protein half-life in vivo: 6.09 ± 0.91 h
[5]
  total protein half-life in vivo: 4.79 h
[6]
  total protein half-life in vivo: 3.38 h
[8]
  total protein half-life in vivo: 11.2 ± 1.3 h
[9]
  total protein half-life in vivo: 6.68 ± 0.97 h
[10]
  total protein half-life in vivo: 9.34 h
[12]
  total protein half-life in vivo: 8.02 h

From the supplement of paper PMC11246515
